{"source": "patent CN116253795A", "about": "(SUN YAT SEN UNIV CANCER CENTER SUN YAT SEN UNIV AFFILIATED …, dated 2023)", "key": {"[1]": {"target": "T1, gHgL胞外域全长蛋白 (recombinant single-chain EBV gL-linker-gH ectodomain with 6xHis, SEQ ID NO.12) (Epstein-Barr virus, M81 strain …)", "T1 construct": "not shown: 6xHis tag", "experiment": "SPR, Biacore 8K, antibody captured on Protein A chip, gHgL as analyte 3.125-200 nM"}, "[2]": {"target": "T2, P9肽 (biotinylated 20-mer peptide of gL, aa 104-123) (Epstein-Barr virus, M81 strain, N-terminal biotin)", "T2 peptide": "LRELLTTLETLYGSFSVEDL", "experiment": "ELISA, biotinylated peptide on streptavidin plate, antibody 1 ug/mL"}, "[3]": {"target": "T1, gHgL胞外域全长蛋白 (recombinant single-chain …)", "experiment": "ELISA, gHgL protein coated at 2 ug/mL, antibody titrated"}}, "data": [{"binder": "兔源单克隆抗体10E4 (rabbit monoclonal antibody 10E4) (antibody, V domains shown, also called 单抗10E4) VH: QQVKESGGRLVTPGTPLTLTCTASGFSLSTYWMSWVRQAPGKGLEYIGVIGGSGSTYYASWAKGRFTISKTSTTVDLKITSPTTEDTATYFCARDSGAGVRFRFWGPGTLVTVSS VL: DLVMTQTPASVEAGVGGTVTINCQASENIGSRLAWYQQKPGQPPKLLIYRASTLESGVPSRFKGSGSGTEFTLTISDLECADAATYYCQCTYGVSITINYGNDFGGGTEVVVKG", "values": [{"measurement": "Kd", "setting": "[1]", "result": 3.53, "unit": "nM"}, {"measurement": "binding result", "setting": "[2]", "result": "binds"}, {"measurement": "EC50", "setting": "[3]", "result": 0.0335, "unit": "µg/mL"}]}]}
